# Molecular target: cytochrome c (human (endogenous in SK-N-BE), UniProt P99999 1-105)
# Assay: co-IP
# Sequence of cytochrome c (P99999 whole entry): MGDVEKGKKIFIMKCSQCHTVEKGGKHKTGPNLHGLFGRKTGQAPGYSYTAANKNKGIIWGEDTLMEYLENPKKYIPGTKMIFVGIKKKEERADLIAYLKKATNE
binder,measurement,value
"Neuroglobin (natural protein, human (endogenous in SK-N-BE), UniProt Q9NPG2 1-151, looked up) MERPEPELIRQSWRAVSRSPLEHGTVLFARLFALEPDLLPLFQYNCRQFSSPEDCLSSPEFLDHIRKVMLVIDAAVTNVEDLSSLEEYLASLGRKHRAVGVKLSSFSTVGESLLYMLEKCLGPAFTPATRAAWSQLYGAVVQAMSRGWDGE",fold NGB–cytochrome c association in mitochondria after E2,~3.3 fold

# From PMC3734830 (Cell Death & Disease, 2013)
